Assay [1] has as its target T1, CD21 (complement receptor type 2) (UniProt P20023 21-1033, limits assumed).
T1 construct: Endogenous protein in tissue section
T1 sequence (looked up): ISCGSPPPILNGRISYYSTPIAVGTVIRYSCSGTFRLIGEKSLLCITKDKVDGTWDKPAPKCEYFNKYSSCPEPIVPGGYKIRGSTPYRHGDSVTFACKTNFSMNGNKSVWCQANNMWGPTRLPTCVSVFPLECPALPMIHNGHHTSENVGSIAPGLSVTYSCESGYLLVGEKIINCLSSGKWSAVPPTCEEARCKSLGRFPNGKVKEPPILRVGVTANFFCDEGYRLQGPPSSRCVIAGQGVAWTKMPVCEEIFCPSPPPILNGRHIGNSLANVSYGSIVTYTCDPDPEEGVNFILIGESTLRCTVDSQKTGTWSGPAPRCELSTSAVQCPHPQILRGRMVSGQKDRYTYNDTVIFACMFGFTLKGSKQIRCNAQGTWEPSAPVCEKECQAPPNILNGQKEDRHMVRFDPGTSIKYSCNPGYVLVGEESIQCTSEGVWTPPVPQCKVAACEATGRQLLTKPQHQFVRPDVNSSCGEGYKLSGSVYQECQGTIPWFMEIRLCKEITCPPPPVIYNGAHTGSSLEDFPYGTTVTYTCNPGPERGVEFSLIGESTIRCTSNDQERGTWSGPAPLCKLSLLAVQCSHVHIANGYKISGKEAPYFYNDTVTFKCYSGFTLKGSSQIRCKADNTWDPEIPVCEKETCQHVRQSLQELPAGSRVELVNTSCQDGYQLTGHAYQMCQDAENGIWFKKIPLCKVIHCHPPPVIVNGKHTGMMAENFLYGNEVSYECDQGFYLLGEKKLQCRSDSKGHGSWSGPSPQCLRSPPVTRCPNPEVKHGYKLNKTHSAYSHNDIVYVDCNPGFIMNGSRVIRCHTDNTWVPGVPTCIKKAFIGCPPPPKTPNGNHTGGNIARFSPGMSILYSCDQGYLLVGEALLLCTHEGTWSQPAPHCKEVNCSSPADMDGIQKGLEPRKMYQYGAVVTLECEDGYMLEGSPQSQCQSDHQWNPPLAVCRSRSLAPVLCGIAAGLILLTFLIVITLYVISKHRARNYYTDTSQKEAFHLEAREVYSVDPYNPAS
The experiment in a line: in situ proximity assay on FFPE normal tonsil sections.
Method: (§1) IHC staining was performed on a VENTANA BenchMark XT automated slide-processing system (Ventana). For all IHC staining, FFPE sections were first deparaffinization with EZ Prep solution (Ventana) and washed with reaction buffer. Antigen retrieval was carried out in Cell Conditioning 1 (Ventana) (100° C.; 92 minutes) and again washed with 1× reaction buffer (Ventana). […] After thorough wash with reaction buffer, secondary antibody conjugates of GAR-PEG₈-SS-HA-N₃ and GAM-PEG₄-CCH (100 μL of 10 μg/mL each) were added to slides and incubated at 37° C. for 32 minutes. The slides were washed in reaction buffer and water before a drop of 100 μL of HEPES buffer (0.15 M, pH 7.4) was added to the slides. To initiate the azide-acetylene click reaction, 100 μL of Cu(I) catalyst solution was added onto the slide. One working example of the Cu(I) solution contained 0.6 mM CuSO₄, 3 mM THPTA, 10 mM HEPES (pH=7.4), 40% DMSO (v/v) and 4 mM of sodium ascorbate (freshly made and added to CuSO₄ immediately before adding to slide). The click reaction was allowed to proceed for 32 minutes and the slides were washed thoroughly in reaction buffer. […] For chromogenic based detection using diaminobenzidine (DAB), ready-to-use solutions of DAB, H₂O₂ and Copper from an [sequence] […]

A further assay concerns the target T2, PMS2 (UniProt P54278 1-862).
T2 construct: Endogenous protein of Hela cells in xenograft
T2 sequence (looked up): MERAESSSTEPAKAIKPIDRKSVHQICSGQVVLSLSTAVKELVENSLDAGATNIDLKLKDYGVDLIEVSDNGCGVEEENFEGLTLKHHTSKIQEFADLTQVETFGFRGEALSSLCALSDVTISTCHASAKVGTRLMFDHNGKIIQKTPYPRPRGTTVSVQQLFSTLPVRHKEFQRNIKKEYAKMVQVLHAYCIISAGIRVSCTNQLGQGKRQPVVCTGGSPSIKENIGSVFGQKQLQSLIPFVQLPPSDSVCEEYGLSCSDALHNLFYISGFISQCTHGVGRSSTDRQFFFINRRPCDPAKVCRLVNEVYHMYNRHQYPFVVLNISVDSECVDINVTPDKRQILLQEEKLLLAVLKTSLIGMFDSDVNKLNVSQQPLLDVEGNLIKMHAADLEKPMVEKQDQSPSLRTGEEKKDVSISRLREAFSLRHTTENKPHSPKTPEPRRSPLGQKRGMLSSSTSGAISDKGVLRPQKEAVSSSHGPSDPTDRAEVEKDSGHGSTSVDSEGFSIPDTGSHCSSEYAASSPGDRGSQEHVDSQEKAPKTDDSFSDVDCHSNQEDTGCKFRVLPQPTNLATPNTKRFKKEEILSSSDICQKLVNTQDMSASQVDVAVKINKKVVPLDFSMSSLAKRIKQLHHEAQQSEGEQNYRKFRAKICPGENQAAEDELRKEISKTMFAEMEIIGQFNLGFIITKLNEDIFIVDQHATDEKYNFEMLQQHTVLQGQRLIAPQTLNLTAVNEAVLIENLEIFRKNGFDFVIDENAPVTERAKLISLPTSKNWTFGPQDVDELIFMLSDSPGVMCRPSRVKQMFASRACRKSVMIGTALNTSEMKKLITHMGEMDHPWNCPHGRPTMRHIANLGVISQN
The experiment in a line: in situ proximity assay on Hela cell xenograft sections.

Another assay has as its target T3, β-catenin (UniProt P35222 2-781).
T3 construct: Endogenous protein in tissue section; also called beta-catenin
T3 sequence (looked up): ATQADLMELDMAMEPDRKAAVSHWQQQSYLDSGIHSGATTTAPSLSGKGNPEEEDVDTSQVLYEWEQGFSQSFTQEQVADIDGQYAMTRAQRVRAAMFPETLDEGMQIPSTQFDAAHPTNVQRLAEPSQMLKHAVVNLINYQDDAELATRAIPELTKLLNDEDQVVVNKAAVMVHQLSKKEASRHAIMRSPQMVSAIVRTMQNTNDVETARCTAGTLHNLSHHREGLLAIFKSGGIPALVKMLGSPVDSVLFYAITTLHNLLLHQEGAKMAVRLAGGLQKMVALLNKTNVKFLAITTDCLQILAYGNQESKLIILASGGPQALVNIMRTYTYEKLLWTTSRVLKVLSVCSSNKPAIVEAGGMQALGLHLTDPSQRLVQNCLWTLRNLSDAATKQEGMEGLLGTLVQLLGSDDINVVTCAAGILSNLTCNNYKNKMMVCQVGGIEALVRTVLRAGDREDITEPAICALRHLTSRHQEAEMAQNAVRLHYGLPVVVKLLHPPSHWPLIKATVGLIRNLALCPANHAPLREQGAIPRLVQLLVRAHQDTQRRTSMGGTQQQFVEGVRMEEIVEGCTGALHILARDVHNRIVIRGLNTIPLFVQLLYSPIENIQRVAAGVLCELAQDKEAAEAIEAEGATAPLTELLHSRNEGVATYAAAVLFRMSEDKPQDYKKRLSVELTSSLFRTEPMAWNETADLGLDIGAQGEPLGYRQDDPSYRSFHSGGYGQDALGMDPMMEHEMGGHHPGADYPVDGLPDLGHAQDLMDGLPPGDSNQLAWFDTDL
The experiment in a line: in situ proximity assay (chemical ligation and hapten transfer) on FFPE tonsil and skin sections.

Method for β-catenin: as §1

B1: CD19 (receptor, UniProt P15391 20-556, looked up)
chain: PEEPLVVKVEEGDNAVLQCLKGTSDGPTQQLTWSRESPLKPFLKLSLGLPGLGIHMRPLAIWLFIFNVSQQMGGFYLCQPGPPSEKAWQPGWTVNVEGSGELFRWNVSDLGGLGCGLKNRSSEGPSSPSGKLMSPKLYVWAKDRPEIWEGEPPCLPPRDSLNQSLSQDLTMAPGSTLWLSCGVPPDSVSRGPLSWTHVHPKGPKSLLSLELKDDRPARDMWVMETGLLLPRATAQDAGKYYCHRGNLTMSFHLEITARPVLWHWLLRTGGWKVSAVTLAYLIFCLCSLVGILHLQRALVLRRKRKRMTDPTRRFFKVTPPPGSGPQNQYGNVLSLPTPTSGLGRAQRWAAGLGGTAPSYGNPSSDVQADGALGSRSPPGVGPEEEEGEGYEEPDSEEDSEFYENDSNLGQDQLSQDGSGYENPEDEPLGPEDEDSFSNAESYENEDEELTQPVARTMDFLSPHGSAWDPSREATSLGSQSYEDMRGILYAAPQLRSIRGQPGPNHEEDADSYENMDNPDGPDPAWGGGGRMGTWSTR
notes: Endogenous protein in tissue section
Consider B1, for which the binding result in assay [1] was “binds”.

B2: MLH1 (other, UniProt P40692 2-756, looked up)
chain: SFVAGVIRRLDETVVNRIAAGEVIQRPANAIKEMIENCLDAKSTSIQVIVKEGGLKLIQIQDNGTGIRKEDLDIVCERFTTSKLQSFEDLASISTYGFRGEALASISHVAHVTITTKTADGKCAYRASYSDGKLKAPPKPCAGNQGTQITVEDLFYNIATRRKALKNPSEEYGKILEVVGRYSVHNAGISFSVKKQGETVADVRTLPNASTVDNIRSIFGNAVSRELIEIGCEDKTLAFKMNGYISNANYSVKKCIFLLFINHRLVESTSLRKAIETVYAAYLPKNTHPFLYLSLEISPQNVDVNVHPTKHEVHFLHEESILERVQQHIESKLLGSNSSRMYFTQTLLPGLAGPSGEMVKSTTSLTSSSTSGSSDKVYAHQMVRTDSREQKLDAFLQPLSKPLSSQPQAIVTEDKTDISSGRARQQDEEMLELPAPAEVAAKNQSLEGDTTKGTSEMSEKRGPTSSNPRKRHREDSDVEMVEDDSRKEMTAACTPRRRIINLTSVLSLQEEINEQGHEVLREMLHNHSFVGCVNPQWALAQHQTKLYLLNTTKLSEELFYQILIYDFANFGVLRLSEPAPLFDLAMLALDSPESGWTEEDGPKEGLAEYIVEFLKKKAEMLADYFSLEIDEEGNLIGLPLLIDNYVPPLEGLPIFILRLATEVNWDEEKECFESLSKECAMFYSIRKQYISEESTLSGQQSEVPGSIPNSWKWTVEHIVYKALRSHILPPKHFTEDGNILQLANLPDLYKVFERC
notes: Endogenous protein of Hela cells in xenograft
With B2, in the assay with PMS2, the binding result is “binds”.

B3: E-cadherin (other, UniProt P12830 155-882, looked up)
chain: DWVIPPISCPENEKGPFPKNLVQIKSNKDKEGKVFYSITGQGADTPPVGVFIIERETGWLKVTEPLDRERIATYTLFSHAVSSNGNAVEDPMEILITVTDQNDNKPEFTQEVFKGSVMEGALPGTSVMEVTATDADDDVNTYNAAIAYTILSQDPELPDKNMFTINRNTGVISVVTTGLDRESFPTYTLVVQAADLQGEGLSTTATAVITVTDTNDNPPIFNPTTYKGQVPENEANVVITTLKVTDADAPNTPAWEAVYTILNDDGGQFVVTTNPVNNDGILKTAKGLDFEAKQQYILHVAVTNVVPFEVSLTTSTATVTVDVLDVNEAPIFVPPEKRVEVSEDFGVGQEITSYTAQEPDTFMEQKITYRIWRDTANWLEINPDTGAISTRAELDREDFEHVKNSTYTALIIATDNGSPVATGTGTLLLILSDVNDNAPIPEPRTIFFCERNPKPQVINIIDADLPPNTSPFTAELTHGASANWTIQYNDPTQESIILKPKMALEVGDYKINLKLMDNQNKDQVTTLEVSVCDCEGAAGVCRKAQPVEAGLQIPAILGILGGILALLILILLLLLFLRRRAVVKEPLLPPEDDTRDNVYYYDEEGGGEEDQDFDLSQLHRGLDARPEVTRNDVAPTLMSVPRYLPRPANPDEIGNFIDENLKAADTDPTAPPYDSLLVFDYEGSGSEAASLSSLNSSESDKDQDYDYLNEWGNRFKKLADMYGGGEDD
notes: Endogenous protein in tissue section; also called E-cadherein
Regarding B3, the binding result in the assay with β-catenin is reported as “binds”.

For the origin of these results see patent US20170254813A1 (VENTANA MEDICAL SYSTEMS, published 2017).
